# Data as given in the supplement of paper PMC11502859.
# Test system: HEK293T
# Assay: median enrichment of reporter reads in eGFP-reduced (low/intermediate) vs eGFP-high sorted cells (eGFP-extension fusion abundance) (ratio); higher = stronger loss of eGFP-fusion protein abundance (more destabilising extension)
# 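Further: lentiviral eGFP-IRES-mCherry reporter pool sorted by FACS 96 h post-transduction, gated on mCherry-high cells, Illumina read counts normalized per million, median across four biological replicates.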
row,Substance,median enrichment
1,LLEWIYDVPLRRSISATILI [HMGCLL1],20.6
2,LLGGPGRRVPPSPCQGPGDPLPGCLRLLLRRGNAKKEKEKPRARPLPPAVHCAASSVPGLTVPLSSAPARQGTCSQPWVDLFF [NRXN2],6.99
3,LLHERMQRMQFPGCAVDFFQQV [CEP112],20.7
4,LLHMQKDSAIYLKID [APBB2],11.6
5,LLK [HGF],1.66
6,LLKTCSTTVLDTH [ATF2],8.11
7,LLL [Leu03],4.12
8,LLLEIRLLQLDV [CDC27],10.6
9,LLLL [Leu04],9.42
10,LLLLL [Leu05],4.74
11,LLLLLL [Leu06],6.86
12,LLLLLLL [Leu07],12.7
13,LLLLLLLL [Leu08],6.62
14,LLLLLLLLL [Leu09],11.2
15,LLLLLLLLLL [Leu10],14.7
16,LLLPADLWIRSLLTGCVTLGPELPLSGPQRPYEGPLLQEHPHDIAFGGAPVACRIACGLCNLLRFKTDGHMCQWGSLSPGPKK [JAK3],5.04
17,LLLPGGEQPTRCRFALRGASYIGTLLSLQNDDTNANDQM [TFB1M],5.57
18,LLLPLGFTSQTQPLEQPDPAE [CHAT],6.49
19,LLLPRSWATP [CEP72],4.2
20,LLMMFQKPK [TGIF2LX],8.04
21,LLQGSKLQR [OR7A5],10.4
22,LLRDPAPPL [AHSP],4.96
23,LLRG [ARPP19],4.64
24,LLRPGALGARP [APOBR],9.86
25,LLRPHVKPPCPSTLPIALQRSSSWMTQI [RESP18],7.12
26,LLSITKVYSKIIF [HNMT],7.95

row,Substance,median enrichment
1,LLTLS [BBS5],10.2
2,LLTVFHKEDV [ATP2A2],10.9
3,LLYSILWSSSSVARPLILSFAHVHPN [KCNK17],25.2
4,LMDHG [GLUD2],1.6
5,LMGCSLLLSFLGLLCFAVLENHKERNSYGEVRKTEKDSCVKLFFACKLLHFKRPPLFLQRTFFAQLWTLSMVP [DLX5],11.5
6,LMLPGIK [CDV3],4.97
7,LMPSTAADLWLDLGKGSIVLGKSTRSCKLGIHS [AGBL4],8.11
8,LMSMSEGKENFGHQNPAPSELKELIYFMKLILLCVCSWC [GALNT15],12.1
9,LNAFLASSAGGLSLGRGDSTHHWNFADRKRFLFSVL [KMT2C],16.9
10,LNCSQLEML [DNAJC24],0.695
11,LNE [ZCCHC2],0.346
12,LNFHTEF [TP53BP2],0.758
13,LNFNKTFKITEIFKI [LIAS],9.41
14,LNFQQRPSKDILQDSVIVNIWKVLEIFIVCKYCKCIGIKLSPPLLYETAHWSL [PTHLH],0.919
15,LNGSHSVTQAGVKWPNHSSLQPQPGRFR [COX17],8.21
16,LNGSI [PHF20L1],0.416
17,LNGVQAQRPLGVMTKCSCTTVLKELRLLPFF [DYTN],8.97
18,LNI [WDR78],0.527
19,LNILKCKASTV [TRAPPC6B],1.63
20,LNKLKMDLFFFNGNRTLCQITSYRNNSLFLTNLVLPYTSTGF [PTEN],9.05
21,LNLKKSFQ [CCDC160],1.05
22,LNLNGHYKLSNST [ARMC4],1.8
23,LNQFLGLTAM [BTN2A1],12.4
24,LNQS [CFH],0.385
25,LNQSVFPACAELLI [ZP4],3.4
26,LNREKKLQVVLKEMQLFKSLCIVLILFTMCNHLENGYFYNLNNKQVLS [C8orf34],2.33

row,Substance,median enrichment
1,LNRKKSPK [MDN1],0.34
2,LNRQDRLWERGSFHKRKMVGLFPE [C10orf53],7.23
3,LNWD [PIK3C3],0.342
4,LPAAPGTRGYTPVSLRE [KRTAP12-3],0.986
5,LPAASLHAPRSSLHGSPGRWQTMLRLHQGHRGAEGPMGEERRALLGKVGFLDPRDKLFRCHNVEESTWGTTVLVQVGLGKCTS [IGHMBP2],3.92
6,LPAIDNVAGTSASPLQPSNFPGTLLSAPEEGAVVSCCLWAPASSAVLGSVLLASVNNKATVCSGICGFVHSVTCHLHRALMAG [MCM5],5.35
7,LPARPHGQPVASCRPHSPGTVSCLCVRPPLPCLLRHPPPHIHTQRFDKLLVFNE [SMTN],7.46
8,LPCSSTVTTRQALLSAEGVIPGPPVCVIVTMPCRDILEATHGWRNPEPPPQPTWLFVDSRRQGCAWLLTCC [PFKFB4],11.1
9,LPDFGAAEAT [ELP6],0.429
10,LPEKLCQLQGGSDFRKVV [HERPUD2],0.919
11,LPF [SDHD],0.443
12,LPFSGLQPPPGWKPWGPSGLGGAASRERAPFSGLPPQHAAS [CDR2L],5.38
13,LPGAGGWTC [PTH1R],1.02
14,LPGLRRTLWTECLRTSYSLMLNPFHFLSFHSWVDSDHKDSWGFPGRTLHLMEHLNCRFCFPPLPHVIIKL [LCE2B],6.36
15,LPGPGFAPAPASGPPGSRCGGCGPRAGARRRRRRREGARPAGRNRSDSRQEPGTEPGTEQQVRPGPPRLGADSDALGGSRKGG [NKX6-2],6.82
16,LPHHTPDHQESQGCCFATHQHRFAQKLCPRLGRSYFKKTWFSWSRWLTPVIPALWEAKPDGS [COG7],8.59
17,LPLARSLPSVHRSQFHRWRRCLR [PIPOX],10.5
18,LPLKTVPLRDPKTLGIDTWASGRAQPWAGGLLRTQRCAWNHS [SLC4A3],31
19,LPLPFTLT [ATF6B],3.98
20,LPLVLYSNLFGNDSSTHRTACVRAHTHTHTHTHTHH [GNAO1],3.16
21,LPMTLSWGPPARPGTFLPNPQTHDSLPHRLPQRPPTHFILSGHPSDLDPPVRAFKAPNSGTRSAPLPRPRAGNFSLPDPALLF [SCRT2],6.07
22,LPNFTSSGESLTLNQRPSTALAPQTSP [ABCB5],0.355
23,LPPLSPECNKHQIPCVK [POLR2I],2.23
24,LPR [ATXN2L],0.876
25,LPRPQPGPRTSGHRWHQPLLQDHQSGAPRTLACVP [GSG1L],17.3
26,LPRWFQPRHTLVPT [DNAAF5],4.04

row,Substance,median enrichment
1,LPSASGSVVGQALIPALWGGSLYSLFGGMVTEFIVEPFSVQMLWLQIRNPTSPG [GOLGA3],4.27
2,LPSESGGKTPPSLCILNH [UGT3A1],0.835
3,LPSRSTATQVYLPLPSNPFPRAIFISPNKRAPRK [HRC],11.1
4,LPSTCPWGQEHPRPQKRERKGQKKEEKKNVQKDFRSSHSYF [TOB2],0.26
5,LPVGCFTSTPAPPASNAHSTPNTTPCPTNAHSRAW [C1QB],1.02
6,LPVGVAGSSLQIWPARCLAGWTG [DOLPP1],8.63
7,LPVRPAQPGPGPRFSTRTVHPASRSL [DLGAP3],17.6
8,LQCTIFSHLYYFFSACIT [HAO1],1.93
9,LQGPLDL [OR56A3],0.31
10,LQIYVCYN [OR8I2],6.8
11,LQNPNLELPMLLSYKHTDSGYS [ATP11C],1.23
12,LQPIYLFISLWGLTH [GUCY1A1],15.3
13,LQPTWSTRAGP [KRT36],0.897
14,LRAGEPHILTAPGLYPGHSRDRLVVEPGGAKKASCGPRTAAVRLPMSQAVCVVTAPLSVHLQQRQRRRLPPGRFSLFIC [ZMYND19],6.85
15,LRASPRRDGKKIYKYISF [CYP2U1],7.5
16,LRCQLPSEQAGGICHTAPPLG [SMPD4],2.92
17,LRGPSPPPMAGG [Degron KLHDC2],5.1
18,LRICRRFPFMKH [CUL4A],8.83
19,LRISQG [ESRRB],1.67
20,LRKLILLIFMTNLYICF [RGS18],14.1
21,LRLIIYQEC [PKIB],6.92
22,LRLQCLLRRKIKFTSSKVTLEDRALGMSFFF [OR2C3],4.08
23,LRLSISRDMVLTQQFPVMAKCSI [IL13RA2],41.5
24,LRMKQLLSGPALPHSCASSALLSSQT [LCN12],30.4
25,LRMWKITCFYLELFNLKIRNCFLLLSQ [CCDC34],26.1
26,LRPGHPDVLLKGAPRAGRGL [CBLC],1.91

row,Substance,median enrichment
1,LRPHKHYGRSVGPQHGLPSGRPVLPEEGPACWPGACRHC [ZGPAT],6.53
2,LRQRQHQCRACPAALSLHALRAPLLLRYPFETSGAGPLPASLTIPRPLSHLGLGKPDSTQDQGSHEARRLRGSCPFSYSRA [SHOX2],5.48
3,LRRGGKREKMERGAGNGGERTSKETEMKT [ZSWIM9],1.53
4,LRRGPGSLRACEEHLLPKNVWFFFLFCFRFSSFEEQREIKRRPPGRGAFSQRLGRFPKSRVPASPAEFTSVPEAAVSSS [BIN1],7.66
5,LRRIQICVCVCVCVCVCVCVCVSLCLCIG [KIFC1],24.3
6,LRRRMSLRAPSWSGPRHPGTSALPPPALLHHMSS [ADHFE1],18.5
7,LRRVLSNLFFFFLYLHLQPQLSHFSP [MTMR11],11.6
8,LRSLI [BAMBI],7.1
9,LRSRRDEAASPFSASPPAQGPSGGACRTCPGTVAPQACLSCRVPMAWSLHLTDWSPLPDSHFQKLGGRDTWKTPVTSFLLRA [DPM2],4.89
10,LRVAFFLL [GTF2A1],6.78
11,LRWLACWAWGLLTDSMEQGWAVCAHAQHALRGGGGGRGFLMSVQELKVSGVLPRICPTPHDKTELCNKQYQFILAVGFCFFSS [WDR6],7.93
12,LSCPDAME [MYH2],0.416
13,LSDHPAFPN [TMBIM6],0.54
14,LSEQVNSRTGAEALPKMK [UVRAG],0.405
15,LSFCLA [UTP3],8.65
16,LSFRQFSSNGPFQGRPLPLRKSCDCILSDGNISMALLGYSA [HIST1H4B],5.72
17,LSGAQE [HELLS],0.562
18,LSGLCT [LCE1A],0.479
19,LSGP [LCE1C],0.649
20,LSHA [CACNG6],0.594
21,LSLLIQKWGQFRKNYLLFAWWFFIMDLAQKKNC [GART],11.7
22,LSLTALPGANSGT [ANKZF1],1.24
23,LSLTASLK [TEX35],1.49
